Common to all, as to experiment: EMSA; MST: 20 mM PBS pH 7.5, 300 mM NaCl, 0.05% Tween 20, 25 C, 50 nM RNA; EMSA: 20 mM Tris-HCl pH 7.5, 300 mM NaCl, 5 mM b-mercaptoethanol, 20% glycerol, agarose gel in Tris-glycine pH 8.0 (8.5 for FAM-RNA), 4 C
Background: Mobility shift assays separate free from complexed probe on a gel.

In one series the target is T1, KAE1;PCC1 (Arabidopsis thaliana;Arabidopsis …, UniProt O49653;Q8GWD7 1-353;1-96, |).
T1 sequence 1: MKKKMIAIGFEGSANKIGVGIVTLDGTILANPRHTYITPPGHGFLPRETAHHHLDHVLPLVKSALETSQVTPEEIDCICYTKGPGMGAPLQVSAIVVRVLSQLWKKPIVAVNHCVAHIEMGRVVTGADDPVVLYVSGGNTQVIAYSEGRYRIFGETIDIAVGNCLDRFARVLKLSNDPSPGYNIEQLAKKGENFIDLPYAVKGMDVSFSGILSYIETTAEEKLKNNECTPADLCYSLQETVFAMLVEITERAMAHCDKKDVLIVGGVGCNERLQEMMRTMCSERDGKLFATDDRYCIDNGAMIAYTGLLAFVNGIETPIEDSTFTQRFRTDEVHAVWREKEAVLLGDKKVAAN
T1 sequence 2: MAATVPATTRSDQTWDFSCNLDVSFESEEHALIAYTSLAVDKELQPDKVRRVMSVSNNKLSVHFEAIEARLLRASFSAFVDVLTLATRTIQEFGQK
As to conditions: protein: recombinant;recombinant; tags: none (6His on partner PCC1);6His (C-term); chain copies: 2;2; label: 5' 6-FAM; tRNA cloverleaf.

In series [1] the target is T2, KAE1;BUD32 R220stop;CGI121;PCC1 (Arabidopsis thaliana;Arabidopsis …, UniProt O49653;Q94K14;Q6NMZ4;Q8GWD7 1-353;1-219;1-172;1-96, |del220-226||).
T2 sequence 1: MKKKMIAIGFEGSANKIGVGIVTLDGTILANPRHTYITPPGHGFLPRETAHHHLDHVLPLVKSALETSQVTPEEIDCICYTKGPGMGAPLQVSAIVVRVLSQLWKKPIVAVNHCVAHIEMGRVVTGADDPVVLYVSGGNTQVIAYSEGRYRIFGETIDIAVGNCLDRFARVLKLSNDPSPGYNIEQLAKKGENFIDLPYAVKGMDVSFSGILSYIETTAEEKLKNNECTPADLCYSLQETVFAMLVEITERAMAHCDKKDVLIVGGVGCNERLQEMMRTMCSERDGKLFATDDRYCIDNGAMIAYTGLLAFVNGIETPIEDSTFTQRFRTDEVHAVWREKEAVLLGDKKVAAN
T2 sequence 2: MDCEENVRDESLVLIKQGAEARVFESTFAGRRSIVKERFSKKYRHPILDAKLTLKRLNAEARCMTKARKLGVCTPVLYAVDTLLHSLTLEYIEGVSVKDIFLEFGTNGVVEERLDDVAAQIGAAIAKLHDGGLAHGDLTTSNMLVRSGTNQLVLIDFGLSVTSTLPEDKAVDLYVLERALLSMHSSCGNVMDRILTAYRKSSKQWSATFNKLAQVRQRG
T2 sequence 3: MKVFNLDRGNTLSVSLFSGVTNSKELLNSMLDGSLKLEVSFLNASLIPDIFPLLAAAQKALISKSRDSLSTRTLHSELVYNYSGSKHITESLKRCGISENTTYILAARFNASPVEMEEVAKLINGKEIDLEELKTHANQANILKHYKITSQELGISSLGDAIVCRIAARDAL
T2 sequence 4: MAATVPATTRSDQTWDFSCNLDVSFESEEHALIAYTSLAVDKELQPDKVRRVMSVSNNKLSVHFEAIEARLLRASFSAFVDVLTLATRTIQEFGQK
Particulars: protein: recombinant;recombinant;recombinant;recombinant; tags: none (6His on partner PCC1);;6His (C-term);6His (C-term); chain copies: 2;2;2;2; label: 5' 6-FAM; tRNA cloverleaf.

The target in the next series is T3, CGI121 (Arabidopsis thaliana, UniProt Q6NMZ4 1-172).
T3 sequence: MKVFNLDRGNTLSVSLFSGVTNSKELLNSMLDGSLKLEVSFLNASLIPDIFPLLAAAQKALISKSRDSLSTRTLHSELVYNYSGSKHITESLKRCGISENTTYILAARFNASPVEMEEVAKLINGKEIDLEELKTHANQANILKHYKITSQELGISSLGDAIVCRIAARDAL
Particulars: protein: recombinant; tags: 6His (C-term); label: 5' 6-FAM; tRNA cloverleaf.

The target in series [2] is T4, KAE1;BUD32 L165K;CGI121;PCC1 (Arabidopsis thaliana;Arabidopsis …, UniProt O49653;Q94K14;Q6NMZ4;Q8GWD7 1-353;1-226;1-172;1-96, |L165K||).
T4 sequence 1: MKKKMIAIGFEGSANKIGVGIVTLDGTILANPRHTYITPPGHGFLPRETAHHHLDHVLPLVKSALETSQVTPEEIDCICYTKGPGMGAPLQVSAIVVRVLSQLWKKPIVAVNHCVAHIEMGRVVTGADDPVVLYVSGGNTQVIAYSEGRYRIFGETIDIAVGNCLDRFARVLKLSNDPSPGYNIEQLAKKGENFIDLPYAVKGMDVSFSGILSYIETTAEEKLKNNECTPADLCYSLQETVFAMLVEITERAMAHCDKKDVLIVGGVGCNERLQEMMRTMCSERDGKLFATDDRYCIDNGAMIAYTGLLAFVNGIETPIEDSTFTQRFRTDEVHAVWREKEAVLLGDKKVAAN
T4 sequence 2: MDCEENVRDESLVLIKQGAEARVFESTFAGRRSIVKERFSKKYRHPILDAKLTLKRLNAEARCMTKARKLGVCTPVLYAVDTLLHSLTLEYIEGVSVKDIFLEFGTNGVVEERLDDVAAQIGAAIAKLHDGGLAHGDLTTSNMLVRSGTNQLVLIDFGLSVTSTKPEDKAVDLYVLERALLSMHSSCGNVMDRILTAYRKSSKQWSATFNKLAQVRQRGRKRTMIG
T4 sequence 3: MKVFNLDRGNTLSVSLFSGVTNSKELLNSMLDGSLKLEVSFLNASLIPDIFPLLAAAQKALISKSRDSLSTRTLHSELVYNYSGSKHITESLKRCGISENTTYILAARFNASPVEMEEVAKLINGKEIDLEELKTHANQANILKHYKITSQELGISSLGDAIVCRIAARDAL
T4 sequence 4: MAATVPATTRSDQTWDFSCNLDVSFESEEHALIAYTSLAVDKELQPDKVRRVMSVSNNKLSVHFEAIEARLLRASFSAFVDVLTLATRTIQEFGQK
As to conditions: protein: recombinant;recombinant;recombinant;recombinant; tags: none (6His on partner PCC1);;6His (C-term);6His (C-term); chain copies: 2;2;2;2; label: 5' 6-FAM; tRNA cloverleaf.

For series [3], the target named is T5, KAE1;BUD32 I47K;CGI121;PCC1 (Arabidopsis thaliana;Arabidopsis …, UniProt O49653;Q94K14;Q6NMZ4;Q8GWD7 1-353;1-226;1-172;1-96, |I47K||).
T5 sequence 1: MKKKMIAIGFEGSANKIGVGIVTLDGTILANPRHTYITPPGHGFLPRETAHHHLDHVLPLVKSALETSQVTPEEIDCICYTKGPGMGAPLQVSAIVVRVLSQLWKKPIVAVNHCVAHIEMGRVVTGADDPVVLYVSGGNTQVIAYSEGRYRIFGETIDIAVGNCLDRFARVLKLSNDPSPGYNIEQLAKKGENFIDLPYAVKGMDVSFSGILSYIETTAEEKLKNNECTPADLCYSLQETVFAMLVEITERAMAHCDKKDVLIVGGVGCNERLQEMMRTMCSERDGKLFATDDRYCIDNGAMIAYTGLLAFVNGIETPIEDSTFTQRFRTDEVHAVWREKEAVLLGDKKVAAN
T5 sequence 2: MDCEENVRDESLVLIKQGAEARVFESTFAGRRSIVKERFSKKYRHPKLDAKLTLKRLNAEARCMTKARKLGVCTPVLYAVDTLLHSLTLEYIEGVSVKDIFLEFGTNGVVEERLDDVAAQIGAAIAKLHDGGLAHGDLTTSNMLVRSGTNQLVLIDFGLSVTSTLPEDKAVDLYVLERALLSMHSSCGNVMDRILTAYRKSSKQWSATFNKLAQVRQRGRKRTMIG
T5 sequence 3: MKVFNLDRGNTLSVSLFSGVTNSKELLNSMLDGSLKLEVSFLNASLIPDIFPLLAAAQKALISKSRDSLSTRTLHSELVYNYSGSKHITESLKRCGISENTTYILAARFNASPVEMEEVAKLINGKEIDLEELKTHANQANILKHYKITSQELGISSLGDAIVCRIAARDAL
T5 sequence 4: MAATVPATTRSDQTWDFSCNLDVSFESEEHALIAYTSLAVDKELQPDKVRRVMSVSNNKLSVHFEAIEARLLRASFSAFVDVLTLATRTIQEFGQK
As to conditions: protein: recombinant;recombinant;recombinant;recombinant; tags: none (6His on partner PCC1);;6His (C-term);6His (C-term); chain copies: 2;2;2;2; label: 5' 6-FAM; tRNA cloverleaf.

The values below come from paper PMC11077089, “Molecular basis of A. thaliana KEOPS complex in biosynthesizing tRNA t6A”.

B1: 5'-6FAM-tRNAArgCCU (structured_RNA)
RNA: GCGCCUGUAGCUCAGUGGAUAGAGCGUCUGUUUCCUAAGCAGAAGGUCGUAGGUUCGACCCCUACCUGGCGCGCCA
On to B1, for which the binding result with KAE1;PCC1 is reported as “no binding”; in series [1] it was “binds”; in the series with CGI121, “no binding”; in series [2] it was “binds”; in series [3], “binds”.
